Assay results: article PMC8279337

Target: Adipose Triglyceride Lipase (UniProt Q96AD5)
UniProt Q96AD5, sequence (Q96AD5 whole entry): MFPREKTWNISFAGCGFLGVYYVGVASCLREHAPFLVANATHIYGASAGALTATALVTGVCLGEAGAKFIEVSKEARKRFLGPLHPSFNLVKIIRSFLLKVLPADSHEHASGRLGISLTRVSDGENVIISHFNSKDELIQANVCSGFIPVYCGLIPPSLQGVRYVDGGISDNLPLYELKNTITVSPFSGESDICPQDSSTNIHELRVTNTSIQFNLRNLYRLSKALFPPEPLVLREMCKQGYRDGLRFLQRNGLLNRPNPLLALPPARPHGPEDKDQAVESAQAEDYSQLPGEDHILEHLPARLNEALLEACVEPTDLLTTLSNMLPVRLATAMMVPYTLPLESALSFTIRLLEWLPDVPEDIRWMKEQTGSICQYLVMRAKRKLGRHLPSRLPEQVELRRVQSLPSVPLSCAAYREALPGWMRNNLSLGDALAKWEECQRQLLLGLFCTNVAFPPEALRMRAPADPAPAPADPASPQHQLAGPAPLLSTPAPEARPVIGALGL

triglyceride hydrolase activity of the ATGL lysate on [9,10-3H]-triolein (DPM), 2 and 10 ug MBP-G0S2, compared with HisMBP; DPM smaller at 10 ug than at 2 ug: 60%
Substance: MBP-G0S2 (full length G0S2 with N-terminal His6 and maltose-binding protein) (from UniProt Q61585 1-103) (natural protein)
